In the nanobody polyreactivity screen of Harvey et al. (2022):

Assay: yeast display, Sf9 membrane polyspecificity reagent, FACS + sequencing; frameworks hold sequencing errors
Summary of the method: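 A nanobody's polyreactivity label depends on the gate it was sorted from. Yeast display cells were stained with 10% biotinylated, detergent-solubilized Sf9 membrane reagent for 1 hour at 4 °C, enriched on streptavidin microbeads and sorted by FACS. The low and high (top ~1%) gates were set on anti-HA fluorescence for expression and streptavidin fluorescence for reagent binding.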

| Sequence | polyreactivity (PSR sort gate) |
| --- | --- |
| HVQLVETGGGLVQAGGSLRLSCAASGRTFDSYTMGWYRQAPGKERELVADITFTGGSTYYADSVKGRFTISRDNAKNTVYLQMNSLKPEATAVYYCNADREYKWYFRYDYWGQGTQVTVSS | low polyreactivity |
| HVQLVQSGGGLVQAGGSLRLSCAASVYTFVYYAIGWYRQATGKERELVAAITSRAGRTYYADSVKGRFTISRDNAKNTVYLQMNSLKPEDTAVYYCNAASTKITRFDYWGQGTQVTVSS | high polyreactivity |
| IILPGGRILLSCAASGRTFSGYGLGWYRQAPVKERELIADITSGGSTYYADSVKGRFTISRDNAKNTVYLQMNILIPVDTAVYYCAAERQIRSFWSSRTYEFGYWGQGTQVNVSS | low polyreactivity |
| KGQLVESGGGLVQAGGSLRLSCAASGSIFGENAMGWYRQAPGKERELVAAITSSGSTYYADSVKGRFTISRANAKNTVYLQMNSLKPEDTAVYYCAKVSVLRMDYWGQGTQVTVSS | low polyreactivity |
| KLQLVESGGGLVQAGGSLRLSCADSGRIFQGNAMGWYRQAPGKERELVAAITYSGRSTFYADSVKGRFTISRDNAKNTVYLQMNRLKPEDTAFYYCAARQYWTTDLPFQRYYYWGQGTQVTVSS | low polyreactivity |
| KVLLVESGGGLVQAGGSLRLSCAASGSIFHGNAMGWYRQAPGKERELVATISSGGSTYYADSVKGLFTISRDNAKNTVDLQMNSLKPEDTAVYYCAAERFWPYKSYYWGQGTQVTVSS | low polyreactivity |
| KVQIVESGGGLVQAGGSLRLSCAASGRTFVVNGMGRYRQAPGKDRELVAAINTSGGSTHYADSVKGRITISRDNAKNTVYLQMNILKPEDTAVYYCAAVGYWRDYSGYWDYYYIYDYWGQGTQVNVSS | low polyreactivity |
| KVQLEESGGGLVQSGGILRLSCAASGSTLWSNTMGWYRQEQGKERELVDAISSGGGSTYADSVKGRFTISRDNAKNTVYLQMNSLKPEDTAVFYCAASAYYYRHSSWHRSDYWGQGTQVTVSS | high polyreactivity |
| KVQLVESGGGLVQAGGSLLLSCAASVSNYTLNAMGWYRQAPGKERVLVAAISLSGGSTYYADSVKGRFTISRDNAKNTVYLQMNSLKPEDTAVYYCNTPPSRYVRYGIYRYDYWGQGTQVTVSS | high polyreactivity |
| KVQLVESGGGLVQAGGSLRISCAASGGIFAYNAMGWYRQAPGKEMELVASITSGGNTYYADSVKGRFTISRDNAKNTFYLQMNSLKPEDTAVYYCNARFYRSWRRYSREPGYNYWGQGTQVTVSS | high polyreactivity |
| KVQLVESGGGLVQAGGSLRISCAASGIIFLGYAMGWYRQAPGKERELVAGISSRGGSTYYADSVKGRFTISRDNAKNTVYLQMNSLKPADSAVYYCAAVSRGSGRDYWGQGTQVTVSS | high polyreactivity |
| KVQLVESGGGLVQAGGSLRISCAASGITFNPYAMGWYRQAAGKERELVAAISRRGGSTNYADSVKGRFTISRDNAKNTVYLQMNSLKPEDTAVYDCNRDYPIGYRHDPVYYWGQGTQVTVSS | high polyreactivity |
| KVQLVESGGGLVQAGGSLRLSCAASGFIFYRNTMGWYRQAPGKEREFVAAIRWRGGSTYYADSVKGRFTISRDNAKNTVYLQMNSLKPEDTAVYYCAADTRPGYSGFEYWGQGTQVTVSS | high polyreactivity |
| KVQLVESGGGLVQAGGSLRLSCAASGFTFEGYAMGWYRQAPGKEMELVAAISSNGGRTYYADSVKGRFTISRDNAKNTVYLQMNSLKPEDTAVYYCNARRAYSGPDYDYYHGRRYDYWGQGTQVTVSS | low polyreactivity |
| KVQLVESGGGLVQAGGSLRLSCAASGGIFYYYAMGWYRQAPGKERELVAAISSGGGTNYADSVKGRFTISRDNAKNTVYLQMNSVKPEDTAVYYCAADQGRDTGYDYWGQGTQVTVSS | low polyreactivity |
| KVQLVESGGGLVQAGGSLRLSCAASGLIFPAYTIGWYRQAPGKEREMVAAISRSGGSTYYADSVKGRFTISRDNAKYTVYLEMNSLKPEDTALYYCAAGYPGYDSYYKFYYWGQGTQVTVSS | high polyreactivity |
| KVQLVESGGGLVQAGGSLRLSCAASGLILRRYAMGWSRQAPGKEREFVARITWSGSRTYYADSVKGRFTISRDYGKNTVYLQMKSLKPEDSAFYYCAAVGRLARRDYWGQGTQVSVSS | high polyreactivity |
